From doi:10.1101/370387 (bioRxiv, 2018)
Where two headings read alike, the source gives them in different places. No end group written: not given here.

How the values were obtained:
cryo-EM structure [1] = molecular target: the molecule itself; assay: cryo-EM structure
cryo-EM structure [2] = molecular target: the molecule itself; assay: cryo-EM structure; remark: listed apart in the source

| Protein | stoichiometry N (cryo-EM structure [1]) | stoichiometry N (cryo-EM structure [2]) |
| --- | --- | --- |
| phospholamban Asn27-Ala mutant (canine PLN sequence), super-inhibitory pentameric form (natural protein, UniProt P61012 1-52, looked up, cysteine pairing not given here; also: pentameric form) MDKVQYLTRSAIRRASTIEMPQQARQALQNLFINFCLILICLLLICIIVMLL | 4 |  |
| phospholamban Lys27-Ala mutant (human PLN sequence), super-inhibitory pentameric form (natural protein, UniProt P26678 1-52, looked up, cysteine pairing not given here; also: pentameric form) MEKVQYLTRSAIRRASTIEMPQQARQALQNLFINFCLILICLLLICIIVMLL |  | 5 |
